T1: Arc1p dN (Saccharomyces cerevisiae, UniProt P46672 132-376, del1-131)
T1 sequence: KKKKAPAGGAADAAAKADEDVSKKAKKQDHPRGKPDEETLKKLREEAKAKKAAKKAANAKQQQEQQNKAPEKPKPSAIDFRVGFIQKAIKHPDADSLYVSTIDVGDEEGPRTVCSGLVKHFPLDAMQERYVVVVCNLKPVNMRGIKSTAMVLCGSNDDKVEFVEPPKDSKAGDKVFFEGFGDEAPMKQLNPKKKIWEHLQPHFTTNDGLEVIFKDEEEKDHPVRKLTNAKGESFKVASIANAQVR

B1: tRNAIle G18C/G19C/dACCA (structured_RNA)
RNA: GGGCUUGUAGCUCAGGUCCUUAGAGCGCACCCCUGAUAAGGGUGAGGUCGGUGGUUCAAGUCCACUCAGGCCC
B2: tRNAIle G18C/G19C (G1, Fig. 5a) (structured_RNA)
RNA: GGGCUUGUAGCUCAGGUCCUUAGAGCGCACCCCUGAUAAGGGUGAGGUCGGUGGUUCAAGUCCACUCAGGCCUACCA
B3: tRNAIle ASL-GAAA/5'GGCC (structured_RNA)
RNA: GGCCGGGCUUGUAGCUCAGGUGGUUAGAGCGCACCGCGAAAGCGGUGAGGUCGGUGGUUCAAGUCCACUCAGGCCC
B4: tRNAIle ASL-GAAA/5'GC (structured_RNA)
RNA: GCGGGCUUGUAGCUCAGGUGGUUAGAGCGCACCGCGAAAGCGGUGAGGUCGGUGGUUCAAGUCCACUCAGGCCC
B5: tRNAIle ASL-GAAA (structured_RNA)
RNA: GGGCUUGUAGCUCAGGUGGUUAGAGCGCACCGCGAAAGCGGUGAGGUCGGUGGUUCAAGUCCACUCAGGCCUACCA
B6: tRNAIle dACCA (structured_RNA)
RNA: GGGCUUGUAGCUCAGGUGGUUAGAGCGCACCCCUGAUAAGGGUGAGGUCGGUGGUUCAAGUCCACUCAGGCCC
B7: tRNAIle ASL-GAAA/dACCA (structured_RNA)
RNA: GGGCUUGUAGCUCAGGUGGUUAGAGCGCACCGCGAAAGCGGUGAGGUCGGUGGUUCAAGUCCACUCAGGCCC
B8: tRNAIle 3'UGGU (structured_RNA)
RNA: AGGCUUGUAGCUCAGGUGGUUAGAGCGCACCCCUGAUAAGGGUGAGGUCGGUGGUUCAAGUCCACUCAGGCCUUGGU
B9: tRNAIle d3'A (structured_RNA)
RNA: AGGCUUGUAGCUCAGGUGGUUAGAGCGCACCCCUGAUAAGGGUGAGGUCGGUGGUUCAAGUCCACUCAGGCCUACC
B10: MiniH dLoop+4bp (dsRNA)
RNA 1: GUGACCACUCAGGCCUACCA
RNA 2: AGGCUUGGGUGGUUAC
B11: MiniH dLoop+2bp (dsRNA)
RNA 1: GACCACUCAGGCCUACCA
RNA 2: AGGCUUGGGUGGUC
B12: MiniH dLoop+6bp (dsRNA)
RNA 1: GCAUGACCACUCAGGCCUACCA
RNA 2: AGGCUUGGGUGGUUAUGC
B13: tRNAIle G18C/G19C (A1, Suppl. Fig. 13b) (structured_RNA)
RNA: AGGCUUGUAGCUCAGGUCCUUAGAGCGCACCCCUGAUAAGGGUGAGGUCGGUGGUUCAAGUCCACUCAGGCCUACCA
B14: MiniH dLoop (dsRNA)
RNA 1: CCACUCAGGCCUACCA
RNA 2: AGGCUUGGGUGG

31 molecules from PMC11286949, “Structural basis of tRNA recognition by the widespread OB fold” can be followed below.

Sequence of Trbp111 (O66738 entry or part of it): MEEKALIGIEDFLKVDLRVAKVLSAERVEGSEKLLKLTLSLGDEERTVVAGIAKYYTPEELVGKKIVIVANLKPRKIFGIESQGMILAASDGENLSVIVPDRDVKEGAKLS

The target in the first data set is T1, Arc1p dN. Kind of data set: ITC; ITC (Arc1p): 25 mM Tris-HCl pH 7.4, 150 mM NaCl, 2 mM MgCl2, 25 °C. FP and competition FP: 25 mM Tris-HCl pH 7.5, 150 mM NaCl (Arc1p) or 50 mM NaCl (Trbp111), 2 mM MgCl2, room temperature. Particulars: protein: recombinant; tags: His-MBP removed; elbow disrupted. For orientation: Isothermal titration calorimetry measures the heat released or taken up as one component is titrated into another.
With B1, the Kd amounted to 2.79 ± 0.304 µM.

For B2, the Kd amounted to 3.33 µM.

Staying with this data set, now noted: protein: recombinant; tags: His-MBP removed; palindromic tail, strong dimer.
On to B3, for which the dissociation constant (Kd) turned out to be 3.3 µM.

The data set is the same for the next values; noted with them: protein: recombinant; tags: His-MBP removed; palindromic tail, weak dimer.
In the case of B4, the Kd is 1.5 ± 0.283 µM.

Still in this data set, the particulars now being: protein: recombinant; tags: His-MBP removed; tRNA fold.
B5: the Kd worked out at 0.252 ± 0.11 µM.

On to B6, for which the Kd stood at 2.1 ± 0.985 µM.

As to B7, the Kd was determined as 1.75 ± 0.958 µM.

In the case of B8, the Kd was found to be 0.654 ± 0.165 µM.

In the case of B9, the Kd worked out at 1.04 ± 0.295 µM.

Another data set concerns the target Trbp111 (Aquifex aeolicus, UniProt O66738 1-111). Kind of data set: competition fluorescence polarization; ITC (Arc1p): 25 mM Tris-HCl pH 7.4, 150 mM NaCl, 2 mM MgCl2, 25 °C. FP and competition FP: 25 mM Tris-HCl pH 7.5, 150 mM NaCl (Arc1p) or 50 mM NaCl (Trbp111), 2 mM MgCl2, room temperature. Particulars: protein: recombinant; tags: His-MBP removed (PreScission); chain copies: 2; hairpin. A general note: Fluorescence polarisation rises when a labelled molecule tumbles more slowly, as on binding a larger partner.
Turning to AGGCUUGGGUGGUUCAAGUCCACUCAGGCCUACCA (mixed, four terminal deoxyriboses) [MiniH DNA tail], the 50% inhibitory concentration (IC50) is 7.51 ± 1.02 µM.

Turning to AGGCUUGGGUGGUUCAAGUCCACUCAGGCCUACCAUUUU (structured_RNA) [MiniH +UUUU], the binding result is “no binding”.

In the case of AGGCUUGGGUGGUUCAAGUCCACUCAGGCCU (structured_RNA) [MiniH dACCA], the binding result was “no binding”.

Regarding AGGCUUCGAAAGAGGCCUUGGU (structured_RNA) [MicroH UGGU], the binding result is listed as “no binding”.

Turning to AGGCUUGGGUGGUUCAAGUCCACUCAGGCCUACA (structured_RNA) [MiniH dC74], the IC50 came to 5.06 ± 0.269 µM.

For the molecule AGGCUUGGGUGGUUCAAGUCCACUCAGGCCUCCA (structured_RNA) [MiniH dA73], the half-inhibitory concentration (IC50) was determined as 5.21 ± 0.817 µM.

As for AGGCUUCGAAAGAGGCCUACCA (structured_RNA) [MicroH GAAA loop], the IC50 was found to be 5.92 ± 0.188 µM.

The same data set, now with this note: protein: recombinant; tags: His-MBP removed (PreScission); chain copies: 2; single strand.
Take ACCACUCACGCCU (ssRNA) [ssRNA 5'ACCA]: the binding result is on record as “no binding”.

For the molecule CCACUCAGGCCU (ssRNA) [ssRNA dACCA], the binding result is given as “no binding”.

The next data set concerns the target T1, Arc1p dN. Described as above. The note with it: protein: recombinant; tags: His-MBP removed.
Regarding B10, the IC50 came out at 3.9 ± 0.124 µM.

Regarding AGGCUUGGGUGCGAAAGCACUCAGGCCUACCA (structured_RNA) [MiniH LoopGAAA], the IC50 amounted to 3.06 ± 0.0821 µM.

For the molecule AGGCUUGGGUGGUUCAAGUCCACUCAGGCCUACAA (structured_RNA) [MiniH-ACAA], the IC50 was 3.08 ± 0.63 µM.

With AGGCUUGGGUGGUUCAAGUCCACUCAGGCCUACUA (structured_RNA) [MiniH-ACUA], the 50% inhibitory concentration (IC50) was 2.6 ± 0.397 µM.

AGGCUUGGGUGGUUCAAGUCCACUCAGGCCUACGA (structured_RNA) [MiniH-ACGA]: the 50% inhibitory concentration (IC50) amounted to 4.83 ± 0.11 µM.

Consider B11, for which the IC50 came to 4.66 ± 1.43 µM.

For AGGCUUUUCAAGUAGGCCUUGGU (structured_RNA) [MicroH 3'UGGU], the IC50 was 15.3 ± 3.31 µM.

Turning to B12, the IC50 was 3.47 ± 0.263 µM.

Turning to B13, the IC50 turned out to be 0.804 ± 0.107 µM.

As to B14, the IC50 amounted to 2.26 ± 1.21 µM.

AGGCUUGGGUGGUUUUUUUCCACUCAGGCCUACCA (structured_RNA) [MiniH ULoop]: the IC50 stood at 3.95 ± 0.248 µM.

The data set is the same for the next values; noted with them: protein: recombinant; tags: His-MBP removed; hairpin.
In the case of AGGCUUUUCAAGUAGGCCU (structured_RNA) [MicroH dACCA], the IC50 worked out at 53.7 ± 5.22 µM.

Consider AGGCUUGGGUGGUUCAAGUCCACUCAGGCCUACAC (structured_RNA) [MiniH-ACAC], for which the IC50 was found to be 3.92 ± 0.672 µM.

Take AGGCUUGGGUGGUUCAAGUCCACUCAGGCCUACCAUUUU (structured_RNA) [MiniH +UUUU]: the IC50 was determined as 9.39 ± 0.782 µM.

As for AGGCUUGGGUGGUUCAAGUCCACUCAGGCCU (structured_RNA) [MiniH dACCA], the concentration for half-maximal inhibition (IC50) is 10.5 ± 2.82 µM.

As for AGGCUUCGAAAGAGGCCUUGGU (structured_RNA) [MicroH UGGU], the IC50 was determined as 43 ± 7.65 µM.

For AGGCUUGGGUGGUUCAAGUCCACUCAGGCCUACA (structured_RNA) [MiniH dC74], the IC50 amounted to 3.03 ± 0.158 µM.

In the case of AGGCUUGGGUGGUUCAAGUCCACUCAGGCCUCCA (structured_RNA) [MiniH dA73], the concentration for half-maximal inhibition (IC50) worked out at 2.45 ± 0.511 µM.

As for AGGCUUCGAAAGAGGCCUACCA (structured_RNA) [MicroH GAAA loop], the IC50 was 13.4 ± 5.38 µM.

In general, Kd refers to the concentration at which binding is half-saturated. In general, IC50 refers to the midpoint of a concentration-inhibition curve.
